Results from the DeepSol protein solubility set.

Assay: soluble on expression in E. coli; label from the status in PepcDB or PDB records

Sequence | soluble on expression in E. coli
MAHHHHHHMPTNAAQALEKLVPGRLLQLADNGTPTIVTPLGNEGSLNALIHAYKGKGYLPYFTHAVKAAQRSLVNELRAAGVEVPNGAEASHLEGVCGVHCRDEASCSHIIPDEHITATLYGEDTDDTRMIVACDPIQTKLRDDCVECFPRVNKVSGWEELVVRVHLFYPNTVPCMSVQDRRARLVTQKQFVPKNARTLQGYHVFHYAKRGSSVRTPHCESMFPYTPKTTESKGFTRENRCTAITVESVFVRDPARQQRPFYAEDAGQARVYFSYLRVDAFVTDDELVEHFPLESMDVAAMPAFTDNRYVEKYHVLVRLYLLAHDQGWTATQPHGCPHPLGDRVGLPVLFRSCATEVIVPDACSHDSQLLLRQRLLPDVEMQVTRFCFRRIVSEVLRQRVVAAAADTPECCIPVVCYMPYSDRVPVFTDKQVGVLARLYPHLGIRRPTSRREWADLSRTLYQHCISLFDILAAVGVPLRDAHGAVIDTDAYVPYTADMADDYFLVIANRPLRDYTCVTNQRWLCEQLLLPDHRPPISARAFAAWVRYWNAMAQLKHELEKQVTLDTVSAHLGLRLPAGKTGQRAACLVNGLVTDAKGGLIFPKLGGRRFRDREHVGALLPGAPVLYSFWVDGKLQFTYVRMPMRFVRGLPLKQVNGQRPVQSVIAAGGAPANRGDGTQRGGGQVGEERRANVAIHA | not soluble
MSLAEKICITEIDKLSQKLLRIETELNANIPTTLWISDLHGEGDRFKSILRGRFGMLYQTCKEGLPATFTPEKIQYLAKIVRKKNYFADSQQQMDRQDVILCFVQILKYKLTNSTNRNREIFLPEFRETIGRLLAGLPVPDPIFEESIISDRLIFHLSYAIRQVLLDRIQVLGDVFDRGSQPDKIIRILSSPAYKEMVDYVFGNHDILWMGAAAGTPSLVAETLRITCRYDHFRLLNRLRFDTSRLAEFAERTYEIKKATGKFKAKTDRGRAMEKALTVIQFKLEEKLINDFPHYGMEKRLWLERLAEMLKTGATEELNDSDFPTIDLENPSKLSKEESEIINDLIEQFRSNKYLKRLLKFFFEEGSTYHISNNFLNIHALVPSTKEGEFEEFMGHKGKDLLDYIQKVIRRTGQNYLYNREQSADDLALFFYLWCGPKSPFFGKHAMKTFERYFLLDKERHAEHSLYWQKNMQSDAFKEKMQEEFGIQRVIFGHTPVNYMQGNKMASEDGVAINVDGGFAAAYYNRGHALVHTPHQLYGIILPTPDELIKAAVRLEPAPLDIEFIDEFPQPLKIKNTIAGKLLQQERDLIMGKIQSYNSEGHHHHHH | soluble
MEYRMFDIGVNLTSSQFAKDRDDVVACAFDAGVNGLLITGTNLRESQQAQKLARQYSSCWSTAGVHPHDSSQWQAATEEAIIELAAQPEVVAIGECGLDFNRNFSTPEEQERAFVAQLRIAADLNMPVFMHCRDAHERFMTLLEPWLDKLPGAVLHCFTGTREEMQACVAHGIYIGITGWVCDEPTRTGAAGTFAVDSGGKITDRNLEHHHHHH | not soluble
MGSDKIHHHHHHMHYEHSRKGNHMIKINHLTITQNKDLRDLVSDLTMTIQDGEKVAIIGEEGNGKSTLLKILMGEALSDFTIKGNIQSDYQSLAYIPQKVPEDLKKKTLHDYFFLDSIDLDYSILYRLAEELHFDSNRFASDQEIGNLSGGEALKIQLIHELAKPFEILFLDEPSNDLDLETVDWLKGQIQKTRQTVIFISHDEDFLSETADTIVHLRLVKHRKEAETLVEHLDYDSYSEQRKANFAKQSQQAANNQRAYDKTMEKHRRVKQNVETALRATKDSTAGRLLAKKMKTVLSQEKRYEKAAQSMTQKPLEEEQIQLFFSDIQPLPASKVLVQLEKENLSIDDRVLVQKLQLTVRGQEKIGIIGPNGVGKSTLLAKLQRLLNDKREISLGFMPQDYHKKLQLDLSPIAYLSKTGEKEELQKIQSHLASLNFSYPEMQHQIRSLSGGQQGKLLLLDLVLRKPNFLLLDEPTRNFSPTSQPQIRKLFATYPGGLITVSHDRRFLKEVCSIIYRMTEHGLKLVNLEDL | not soluble
MGSDKIHHHHHHMPKEKYEPPDPRRMYTIMSSEEAANGKKSHWAELEISGKVRSLSSSLWSLTHLTALHLSDNSLSCIPSDIAKLHNLVYLDLSHNQIQSLPAELGNMVSLRELHLNYNQLRVLPFELGKLFQLQTLSLKGNPLTQDILNLCLEPDGTRRLLNYLLDNLSVSTEQPPPRSWIMLQEPDRTRPTALFSVMCYNVLCDKYATRQLYGYCPSWALNWDYRKKAIIQEILSCNADIISLQEVETEQYYSFFLVELKERGYNGFFSPKSRARTMSEQERKHVDGCAIFFKTEKFTLVQKHTVEFNQLAMANSEGSEAMLNRVMTKDNIGVAVLLELRKELIEMSSGKPHLGTEKQLILVANAHMHWDPEYSDVKLVQTMMFLSEVKNIIDKASRSLKSSVLGECGTIPLVLCADLNSLPDSGVVEYLSTGGVETNHKDFKELRYNESLTNFSCNGKNGMTNGRITHGFKLKSAYENGLMPYTNYTFDFKGIIDYIFYSKPQLNTLAILGPLDHHWLVENNISGCPHPLIPSDHFSLFAQLELLLPFLPQVNGIHLPGRR | not soluble
SGDRSMVEVLADHPGELVRTDSPNFLSSVLPTHWRSNKTLPIAFKVVALGDVPDGTLVTVMAGNDENYSAELRNATAAMKNQVARFNDLRFVGRSGRGKSFTLTITVFTNPPQVATYHRAIKITVDGPREPRRHRQKLDD | soluble
MGSDKIHHHHHHMNRDTERTTMEGEHLYSPKNDDAPPAPAPDSPASLLDELIEAARVKRDEEAYPITRHGIEAFVAHLARPKRPIETVSQATIDDMIAEIDRKLCRQVDAILHHPDFQQLESTWRSLKFLVERTDFRENIKIQFLDVGKAALLDDFDDSPDITKSGLYQKVYAAEYGQFGGQPIGAIVANYTFGPGAQDVKLLQYVASTSAMAHTPFIAAAGPAFFGIDSFGKLPNVKDLASLFEGPQFAKWNAFRESEDARYVGLTLPRFLLRLPYGANTTPVKRFNYDERVDGGDADFLWGNAAFAFATRLTASFADYRWCANVIGPKGGGTVADLPLYAYEAMGEIQNKIPTDVLISERREFELAEQGFIALTMRKHSDNAAFFSANSTQKPKFFGISKEGKDAELNYRLGTQLPYIFVVNRLAHYIKVIQRENIGTWKERGDLEQELNQWIRQYVADMDNPTEGVRSRRPLRQAEIFVSDVEGEPGWYRVDMKVRPHFKYMGASFTLSLVGKLEKR | not soluble
MWQNFYLTTLKLSQYTQEEKPILPADNMDPRALASVHAWEHGDFMCKGYIQSRLSDPLYNVYSNVETSNELWDSLDKKYQTKDAGSQKYAAAKFLDYKMVDSRPMMVQVEELTCLFHDI | soluble
MKENDLIPNVKVMIDVRNMNNISDTDGSPNDFTSIDTHELFNNKKILLISLPGAFTPTCSTKMIPGYEEEYDYFIKENNFDDIYCITNNDIYVLKSWFKSMDIKKIKYISDGNSSFTDSMNMLVDKSNFFMGMRPWRFVAIVENNILVKMFQEKDKQHNIQTDPYDISTVNNVKEFLKNNQL | soluble
MGSDKIHHHHHHMSNRHDADTPARLSSGIDGIDDILGGGLTPHRMYLVEGAPGTGKTTLALQFLLKGVEEGQGGLYITLSETRPELIAVAESHGWDISRFTILELLSDEGLDPQYEQTVLHPAEVELGETVRNVIQHVDELKPARIVLDSLSELRLLSQNPLRYRRQILALKRYFATRECTVLLLDDNSSDPGDVQLHSIAHGVISLDNLVHDYGGNRRRARVAKMRGIKFREGYHDFTLDTGGIHVYPRLVAAEHHADFSTEVVSTGTAGLDALLGGGLIPGTNALMIGPSGVGKTTTVVSCLIAALERGERCVYYVFDETLTTLMTRCATLGIYLAPHVESGLLTLRQIDPAEISPGEFASDVRRSVEKKGVRYVAIDSLNAYLQAMPGERYLLLQMHELLGYLNQQGIVTMLVLGQHGIIGEVQNDIDISYLSDVVVLFRYFEHHGEVLTAITAVKSRANAHERSIRQFRLGVNGVEVGDALRDFEGVLSGLPAYRGSTALLGATNRVIETPGK | not soluble
MSKRNTQQRRHNIIADLNAQGEVSVDSLAKQFDTSEVTIRKDLAALETSGLLLRRYGGAVALPSEITEAKVDQLSQQKLHIAKKAAMLIRDHNRIIIDSGQTTSALVSELANKKGLVVMTNALSIANEIHALENEPTLLMTGGTWDATSEAFQGQVAEQVLRSYDFDQLFIGADGIDIKRGTTTFNELIGLSRVMAEVAREVIVMVESAKITKKIPNLELNWQQIHTVITDDGLSEEMRIALTEQGVKLIIAKGLEHHHHHH | soluble
MTQHTRNFSFKVLTINTHKGFTAFNKRFILPELRDAVRTVGADIVCLQEVMGAHEVHPLHIENWPDTTHYEFLADTMWSDFAYGRNAVYPEGHHGNAVLSRYPIEHYENRDVSVGGSEKRGVLYCRITPPMLNRPIHVMCVHLGLRESHRQAQLTMLAGWVNALPESEPVLVAGDFNDWRQKAGPPLNAAGLEEIFTRAHGRPARTFPVSMPLLRLDRIYVKNANASSPTALPLRNWRHLSDHAPLSAEIHL | not soluble
MHHHHHHSSGVDLGTENLYFQSMAQADIALIGLAVMGQNLILNMNDHGFVVCAFNRTVSKVDDFLANEAKGTKVVGAQSLKEMVSKLKKPRRIILLVKAGQAVDDFIEKLVPLLDTGDIIIDGGNSEYRDTTRRCRDLKAKGILFVGSGVSGGEEGARYGPSLMPGGNKEAWPHIKTIFQGIAAKVGTGEPCCDWVGDEGAGHFVKMVHNGIEYGDMQLICEAYHLMKDVLGMAQDEMAQAFEDWNKTELDSFLIEITANILKFQDTDGKHLLPKIRDSAGQKGTGKWTAISALEYGVPVTLIGEAVFARCLSSLKDERIQASKKLKGPQKFQFDGDKKSFLEDIRKALYASKIISYAQGFMLLRQAATEFGWTLNYGGIALMWRGGCIIRSVFLGKIKDAFDRNPELQNLLLDDFFKSAVENCQDSWRRAVSTGVQAGIPMPCFTTALSFYDGYRHEMLPASLIQAQRDYFGAHTYELLAKPGQFIHTNWTGHGGTVSSSSYNA | soluble
MGRSQATAESYRDSLTIFKNYLVGELGKSISTFQFSDCTKECIYNFREYLLANGSQPSTVNVRVAAIRAYLNYASDMDISVQSVALAISQISPCLEHHHHHH | not soluble
MQTSHSLPSAQLPLFQEAFWASNGAPLLDDVIDSPSSASIEEPAAFSELSLSGLPGHCLTLLAPILRELSEEQDARWLTLIAPPASLTHEWLRRAGLNRERILLLQAKDNAAALALSCEALRLGRSHTVVSWLEPLSRAARKQLSRAAQLGQAQSLNIRLG | soluble
MGSDKIHHHHHHMLKIGPIEMKNQVVLAPMAGVCNPAFRLIAKEFGAGLVCAEMVSDKAILHKNEKSLSMLYVDEREKPLSLQIFGGEKETLVEAAKFVDKNTNADIIDINMGCPVPKITKCDAGARWLLDPNKIYDMVSAVVDEVDKPVTVKMRIGWDEEHIYAVENAQAVERAGGAAVAVHGRTRVQMYEGTADWNIIREVKQAVGIPVIGNGDVKTPQDAKRMLDEIGVDGVMIGRAALGNPWMLYRTIHYLETGELLPDPTPREKMDVCMIHLDRLIKLKGENVAVREMRKHAAWYLKGLRGNGKIRDQINQFETREDVSSTLYAYIEELEAKMAEKSASVV | not soluble
MAEVFVGPVAQGYASGEVTVLLASPRSFCAGVERAIETVKRVLDVAEGPVYVRKQIVHNTVVVAELRDRGAVFVEDLDEIPDPPPPGAVVVFSAHGVSPAVRAGADERGLQVVDATCPLVAKVHAEAARFAARGDTVVFIGHAGHEETEGTLGVAPRSTLLVQTPADVAALNLPEGTQLSYLTQTTLALDETADVIDALRARFPTLGQPPSEDICYATTNRQRALQSMVGECDVVLVIGSCNSSNSRRLVELAQRSGTPAYLIDGPDDIEPEWLSSVSTIGVTAGASAPPRLVGQVIDALRGYASITVVERSIATETVRFGLPKQVRAQ | not soluble
